This note sets out measurements from paper PMC5053164.

A short description of data set [1]: expression yield of multisite mutants. As to conditions: glycan lost; control: wild type.
Data set [2] can be described thus: yield of purified secreted protein, SDS-PAGE. As to conditions: glycan lost; control: wild type.

B1: DORN1 extracellular domain (atDORN1-ECD; LecRK-I.9): N124N128N204N225D (protein)
parent chain: MARWLLQILIISSLHLSSVSSQQETSFVYESFLDRQNLYLDKSAIVLPSGLLQLTNASEHQMGHAFHKKPIEFSSSGPLSFSTHFVCALVPKPGFEGGHGIVFVLSPSMDFTHAESTRYLGIFNASTNGSSSYHVLAVELDTIWNPDFKDIDHNHVGIDVNSPISVAIASASYYSDMKGSNESINLLSGNPIQVWVDYEGTLLNVSVAPLEVQKPTRPLLSHPINLTELFPNRSSLFAGFSAATGTAISDQYILWWSFSIDRGSLQRLDISKLPEVPHPRAPHKKVSTLIILLPVCLAILVLAVLAGLYFRRRRKYSEVSETWEKEFDAHRFSYRSLFKATKGFSKDEFLGKGGFGEVYRGNLPQGREIAVKRVSHNGDEGVKQFVAEVVSMRCLKHRNLVPLFGYCRRKRELLLVSEYMPNGSLDEHLFDDQKPVLSWSQRLVVVKGIASALWYLHTGADQVVLHRDVKASNIMLDAEFHGRLGDFGMARFHEHGGNAATTAAVGTVGYMAPELITMGASTGTDVYAFGVFMLEVTCGRRPVEPQLQVEKRHMIKWVCECWKKDSLLDATDPRLGGKFVAEEVEMVMKLGLLCSNIVPESRPTMEQVVLYLNKNLPLPDFSPYTLGIGTFAPVLVDASSLVVSSASWSLSGPSMSSSSPNHSPYAWQSTDQPWGQTIDTKNSLHIVAEPEKPSPAVKMVTLPAEDPQSNHSSISSQRVQPVKREKRRLHQILVAFPWINKQYFKLGLPKHIVHVSLFFFLQLARL
As to B1, in data set [1], the “expression_or_secretion, percent_of_wt” value was “decreases”.

B2: DORN1 extracellular domain (atDORN1-ECD; LecRK-I.9): N204D (protein)
parent chain: MARWLLQILIISSLHLSSVSSQQETSFVYESFLDRQNLYLDKSAIVLPSGLLQLTNASEHQMGHAFHKKPIEFSSSGPLSFSTHFVCALVPKPGFEGGHGIVFVLSPSMDFTHAESTRYLGIFNASTNGSSSYHVLAVELDTIWNPDFKDIDHNHVGIDVNSPISVAIASASYYSDMKGSNESINLLSGNPIQVWVDYEGTLLNVSVAPLEVQKPTRPLLSHPINLTELFPNRSSLFAGFSAATGTAISDQYILWWSFSIDRGSLQRLDISKLPEVPHPRAPHKKVSTLIILLPVCLAILVLAVLAGLYFRRRRKYSEVSETWEKEFDAHRFSYRSLFKATKGFSKDEFLGKGGFGEVYRGNLPQGREIAVKRVSHNGDEGVKQFVAEVVSMRCLKHRNLVPLFGYCRRKRELLLVSEYMPNGSLDEHLFDDQKPVLSWSQRLVVVKGIASALWYLHTGADQVVLHRDVKASNIMLDAEFHGRLGDFGMARFHEHGGNAATTAAVGTVGYMAPELITMGASTGTDVYAFGVFMLEVTCGRRPVEPQLQVEKRHMIKWVCECWKKDSLLDATDPRLGGKFVAEEVEMVMKLGLLCSNIVPESRPTMEQVVLYLNKNLPLPDFSPYTLGIGTFAPVLVDASSLVVSSASWSLSGPSMSSSSPNHSPYAWQSTDQPWGQTIDTKNSLHIVAEPEKPSPAVKMVTLPAEDPQSNHSSISSQRVQPVKREKRRLHQILVAFPWINKQYFKLGLPKHIVHVSLFFFLQLARL
With B2, the expression_or_secretion result in data set [2] is recorded as “no change”.

B3: DORN1 extracellular domain (atDORN1-ECD; LecRK-I.9): N128D (protein)
parent chain: MARWLLQILIISSLHLSSVSSQQETSFVYESFLDRQNLYLDKSAIVLPSGLLQLTNASEHQMGHAFHKKPIEFSSSGPLSFSTHFVCALVPKPGFEGGHGIVFVLSPSMDFTHAESTRYLGIFNASTNGSSSYHVLAVELDTIWNPDFKDIDHNHVGIDVNSPISVAIASASYYSDMKGSNESINLLSGNPIQVWVDYEGTLLNVSVAPLEVQKPTRPLLSHPINLTELFPNRSSLFAGFSAATGTAISDQYILWWSFSIDRGSLQRLDISKLPEVPHPRAPHKKVSTLIILLPVCLAILVLAVLAGLYFRRRRKYSEVSETWEKEFDAHRFSYRSLFKATKGFSKDEFLGKGGFGEVYRGNLPQGREIAVKRVSHNGDEGVKQFVAEVVSMRCLKHRNLVPLFGYCRRKRELLLVSEYMPNGSLDEHLFDDQKPVLSWSQRLVVVKGIASALWYLHTGADQVVLHRDVKASNIMLDAEFHGRLGDFGMARFHEHGGNAATTAAVGTVGYMAPELITMGASTGTDVYAFGVFMLEVTCGRRPVEPQLQVEKRHMIKWVCECWKKDSLLDATDPRLGGKFVAEEVEMVMKLGLLCSNIVPESRPTMEQVVLYLNKNLPLPDFSPYTLGIGTFAPVLVDASSLVVSSASWSLSGPSMSSSSPNHSPYAWQSTDQPWGQTIDTKNSLHIVAEPEKPSPAVKMVTLPAEDPQSNHSSISSQRVQPVKREKRRLHQILVAFPWINKQYFKLGLPKHIVHVSLFFFLQLARL
Turning to B3, the expression_or_secretion entry in data set [2] is given as “no change”.

B4: DORN1 extracellular domain (atDORN1-ECD; LecRK-I.9): N124N128D (protein)
parent chain: MARWLLQILIISSLHLSSVSSQQETSFVYESFLDRQNLYLDKSAIVLPSGLLQLTNASEHQMGHAFHKKPIEFSSSGPLSFSTHFVCALVPKPGFEGGHGIVFVLSPSMDFTHAESTRYLGIFNASTNGSSSYHVLAVELDTIWNPDFKDIDHNHVGIDVNSPISVAIASASYYSDMKGSNESINLLSGNPIQVWVDYEGTLLNVSVAPLEVQKPTRPLLSHPINLTELFPNRSSLFAGFSAATGTAISDQYILWWSFSIDRGSLQRLDISKLPEVPHPRAPHKKVSTLIILLPVCLAILVLAVLAGLYFRRRRKYSEVSETWEKEFDAHRFSYRSLFKATKGFSKDEFLGKGGFGEVYRGNLPQGREIAVKRVSHNGDEGVKQFVAEVVSMRCLKHRNLVPLFGYCRRKRELLLVSEYMPNGSLDEHLFDDQKPVLSWSQRLVVVKGIASALWYLHTGADQVVLHRDVKASNIMLDAEFHGRLGDFGMARFHEHGGNAATTAAVGTVGYMAPELITMGASTGTDVYAFGVFMLEVTCGRRPVEPQLQVEKRHMIKWVCECWKKDSLLDATDPRLGGKFVAEEVEMVMKLGLLCSNIVPESRPTMEQVVLYLNKNLPLPDFSPYTLGIGTFAPVLVDASSLVVSSASWSLSGPSMSSSSPNHSPYAWQSTDQPWGQTIDTKNSLHIVAEPEKPSPAVKMVTLPAEDPQSNHSSISSQRVQPVKREKRRLHQILVAFPWINKQYFKLGLPKHIVHVSLFFFLQLARL
B4: the “expression_or_secretion, percent_of_wt” value in data set [1] is “decreases”.

B5: DORN1 extracellular domain (atDORN1-ECD; LecRK-I.9): N124N204D (protein)
parent chain: MARWLLQILIISSLHLSSVSSQQETSFVYESFLDRQNLYLDKSAIVLPSGLLQLTNASEHQMGHAFHKKPIEFSSSGPLSFSTHFVCALVPKPGFEGGHGIVFVLSPSMDFTHAESTRYLGIFNASTNGSSSYHVLAVELDTIWNPDFKDIDHNHVGIDVNSPISVAIASASYYSDMKGSNESINLLSGNPIQVWVDYEGTLLNVSVAPLEVQKPTRPLLSHPINLTELFPNRSSLFAGFSAATGTAISDQYILWWSFSIDRGSLQRLDISKLPEVPHPRAPHKKVSTLIILLPVCLAILVLAVLAGLYFRRRRKYSEVSETWEKEFDAHRFSYRSLFKATKGFSKDEFLGKGGFGEVYRGNLPQGREIAVKRVSHNGDEGVKQFVAEVVSMRCLKHRNLVPLFGYCRRKRELLLVSEYMPNGSLDEHLFDDQKPVLSWSQRLVVVKGIASALWYLHTGADQVVLHRDVKASNIMLDAEFHGRLGDFGMARFHEHGGNAATTAAVGTVGYMAPELITMGASTGTDVYAFGVFMLEVTCGRRPVEPQLQVEKRHMIKWVCECWKKDSLLDATDPRLGGKFVAEEVEMVMKLGLLCSNIVPESRPTMEQVVLYLNKNLPLPDFSPYTLGIGTFAPVLVDASSLVVSSASWSLSGPSMSSSSPNHSPYAWQSTDQPWGQTIDTKNSLHIVAEPEKPSPAVKMVTLPAEDPQSNHSSISSQRVQPVKREKRRLHQILVAFPWINKQYFKLGLPKHIVHVSLFFFLQLARL
Regarding B5, the “expression_or_secretion, percent_of_wt” value in data set [1] is on record as “decreases”.

B6: DORN1 extracellular domain (atDORN1-ECD; LecRK-I.9): N225D (protein)
parent chain: MARWLLQILIISSLHLSSVSSQQETSFVYESFLDRQNLYLDKSAIVLPSGLLQLTNASEHQMGHAFHKKPIEFSSSGPLSFSTHFVCALVPKPGFEGGHGIVFVLSPSMDFTHAESTRYLGIFNASTNGSSSYHVLAVELDTIWNPDFKDIDHNHVGIDVNSPISVAIASASYYSDMKGSNESINLLSGNPIQVWVDYEGTLLNVSVAPLEVQKPTRPLLSHPINLTELFPNRSSLFAGFSAATGTAISDQYILWWSFSIDRGSLQRLDISKLPEVPHPRAPHKKVSTLIILLPVCLAILVLAVLAGLYFRRRRKYSEVSETWEKEFDAHRFSYRSLFKATKGFSKDEFLGKGGFGEVYRGNLPQGREIAVKRVSHNGDEGVKQFVAEVVSMRCLKHRNLVPLFGYCRRKRELLLVSEYMPNGSLDEHLFDDQKPVLSWSQRLVVVKGIASALWYLHTGADQVVLHRDVKASNIMLDAEFHGRLGDFGMARFHEHGGNAATTAAVGTVGYMAPELITMGASTGTDVYAFGVFMLEVTCGRRPVEPQLQVEKRHMIKWVCECWKKDSLLDATDPRLGGKFVAEEVEMVMKLGLLCSNIVPESRPTMEQVVLYLNKNLPLPDFSPYTLGIGTFAPVLVDASSLVVSSASWSLSGPSMSSSSPNHSPYAWQSTDQPWGQTIDTKNSLHIVAEPEKPSPAVKMVTLPAEDPQSNHSSISSQRVQPVKREKRRLHQILVAFPWINKQYFKLGLPKHIVHVSLFFFLQLARL
Take B6: in data set [2], the expression_or_secretion entry is on record as “no change”.

B7: DORN1 extracellular domain (atDORN1-ECD; LecRK-I.9): N124D (protein)
parent chain: MARWLLQILIISSLHLSSVSSQQETSFVYESFLDRQNLYLDKSAIVLPSGLLQLTNASEHQMGHAFHKKPIEFSSSGPLSFSTHFVCALVPKPGFEGGHGIVFVLSPSMDFTHAESTRYLGIFNASTNGSSSYHVLAVELDTIWNPDFKDIDHNHVGIDVNSPISVAIASASYYSDMKGSNESINLLSGNPIQVWVDYEGTLLNVSVAPLEVQKPTRPLLSHPINLTELFPNRSSLFAGFSAATGTAISDQYILWWSFSIDRGSLQRLDISKLPEVPHPRAPHKKVSTLIILLPVCLAILVLAVLAGLYFRRRRKYSEVSETWEKEFDAHRFSYRSLFKATKGFSKDEFLGKGGFGEVYRGNLPQGREIAVKRVSHNGDEGVKQFVAEVVSMRCLKHRNLVPLFGYCRRKRELLLVSEYMPNGSLDEHLFDDQKPVLSWSQRLVVVKGIASALWYLHTGADQVVLHRDVKASNIMLDAEFHGRLGDFGMARFHEHGGNAATTAAVGTVGYMAPELITMGASTGTDVYAFGVFMLEVTCGRRPVEPQLQVEKRHMIKWVCECWKKDSLLDATDPRLGGKFVAEEVEMVMKLGLLCSNIVPESRPTMEQVVLYLNKNLPLPDFSPYTLGIGTFAPVLVDASSLVVSSASWSLSGPSMSSSSPNHSPYAWQSTDQPWGQTIDTKNSLHIVAEPEKPSPAVKMVTLPAEDPQSNHSSISSQRVQPVKREKRRLHQILVAFPWINKQYFKLGLPKHIVHVSLFFFLQLARL
As to B7, the expression_or_secretion entry in data set [2] is listed as “no change”.
